# Laboratory results: US20170369590A1 (Genmab, published 2017)
# Experiments:
# [1] = target: T1, HER2ECDHis (human, UniProt P04626 23-653, biotinylated in the cross-block ELISA (sites not given)); assay: ELISA; competitor 153
# T1 construct: range 1-653; expressed in HEK-293F; also called soluble HER2; biotinylated HER2ECDHis
# [2] = target: T1, HER2ECDHis; assay: ELISA; competitor tras
# Description: (§1) Next, the ELISA wells were washed with PBST (PBS supplemented with 0.05% Tween-20 [Sigma-Aldrich, Zwijndrecht, The Netherlands]) and blocked for one hour at room temperature (RT) with PBSTC (PBST supplemented 2% [v/v] chicken serum [Gibco, Paisley, Scotland]). The ELISA wells were then washed with PBST and incubated for one hour at RT with HER2ECDHis serially diluted in PBSTC (0.25-2 μg/mL in 2-fold dilutions). […] The plate was thereafter washed with PBST and incubated for one hour with 0.1 μg/mL Streptavidin-poly-HRP (Sanquin, Amsterdam, The Netherlands) diluted in PBST. After washing, the reaction was visualized through a 15 minutes incubation with 2,2′-azino-bis (3-ethylbenzothiazoline-6-sulfonic acid) (ABTS: one ABTS tablet diluted in 50 mL ABTS buffer (Roche Diagnostics, Almere, The Netherlands)) at RT protected from light. The colorization was stopped by adding an equal volume of oxalic acid (Sigma-Aldrich, Zwijndrecht, The Netherlands). Fluorescence at 405 nm was measured on a microtiter plate reader (Biotek Instruments, Winooski, USA).
# (§2) Each HER2 antibody was coated to the ELISA wells at the sub-optimal dose that was determined as described above. After blocking of the ELISA wells, the wells were incubated with the predetermined concentration of 1 μg/mL biotinylated HER2ECDHis in the presence or absence of an excess of a second (competitor) HER2 antibody. The ELISA was then performed as described above. […] Percentage competition was then determined as 100 minus the percentage of inhibition.
# [3] = target: T2, human epidermal growth factor receptor 2 (HER2), membrane-bound on cells (human, UniProt P04626 23-1255); assay: cell-based or functional assay
# [4] = target: T1, HER2ECDHis; assay: ELISA; competitor 025
# Description: as §1, §2
# [5] = target: T1, HER2ECDHis; assay: ELISA; competitor 084
# Description: as §1, §2
# [6] = target: T1, HER2ECDHis; assay: ELISA; competitor 129
# Description: as §1, §2
# [7] = target: T1, HER2ECDHis; assay: ELISA; competitor 091
# Description: as §1, §2
# [8] = target: T1, HER2ECDHis; assay: ELISA; competitor pert
# Description: as §1, §2
# [9] = target: T2, human epidermal growth factor receptor …; assay: cell-based or functional assay; remark: listed apart in the source
# [10] = target: T1, HER2ECDHis; assay: ELISA; competitor 050
# Description: as §1, §2
# [11] = target: T2, human epidermal growth factor receptor …; assay: cell-based or functional assay; remark: listed apart in the source
# [12] = target: T1, HER2ECDHis; assay: ELISA; competitor 169
# Description: as §1, §2
# [13] = target: T1, HER2ECDHis; assay: ELISA; competitor 098
# Description: as §1, §2
Binder,% binding vs no competitor [1] [%],% binding vs no competitor [2] [%],"% cells killed, A431, anti-kappa-ETA'-conjugated [3] [%]","EC50 of cell kill, A431, anti-kappa-ETA'-conjugated [3] [µg/mL]",% binding vs no competitor [4] [%],% binding vs no competitor [5] [%],% binding vs no competitor [6] [%],% binding vs no competitor [7] [%],% binding vs no competitor [8] [%],"% cells killed, AU565, anti-kappa-ETA'-conjugated [9] [%]","EC50 of cell kill, AU565, anti-kappa-ETA'-conjugated [9] [µg/mL]",% binding vs no competitor [10] [%],"EC50, fab-CypHer5E internalization, AU565 [11] [µg/mL]","Maximal MFI, fab-CypHer5E internalization, AU565 [11] [MFI]",% binding vs no competitor [12] [%],% binding vs no competitor [13] [%]
"HuMab 129 (antibody, V domains shown) VH: QVQLVESGGGVVQPGRSLRLSCAASGFTFSTFAIHWVRQAPGKGLEWVAVISYDGGHKFYADSVKGRFTISRDNSKNTLYLQMNSLRAEDTAMYYCARGLGVWGAFDYWGQGTLVTVSS VL: EIVLTQSPATLSLSPGERATLSCRASQSVSSYLAWYQQKPGQAPRLLIYDASNRATGIPARFSGSGSGTDFTLTISSLEPEDFAVYYCQQRSNWWTFGQGTKVEIK",98,93,75.9,~0.0106,55,92,12,76,22,60.8,0.0309,97,0.00715,60300,99,106
"HuMab 025 (antibody, V domains shown, also called TH1014-025; PC1014-025) VH: QVQLQQWGAGLLKPSETLSLTCAVYGGSFSDYYWNWIRQPPGKGLEWIGEIHHSGSTNYNPSLKSRVTISVDTSKNQFSLKLSSVTAADTAVYYCARGYYDSGVYYFDYWAQGTLVTVSS VL: DIQMTQSPSSLSASVGDRVTITCRASQGISRWLAWYQQKPEKAPKSLIYAASSLRSGVPSRFSGSGSGTDFTLTISSLQPEDFATYYCQQYNSYPITFGQGTRLEIK",99,98,86.7,~0.00977,18,104,15,21,8,60,0.0167,100,0.0301,63400,98,102
"HuMab 050 (antibody, V domains shown, also called TH1014-050; PC1014-050) VH: EVQLLESGGGLVQPGGSLRLSCAASGFTFSSYAMNWVRQAPGKGLEWVSAISGRGGTTYYADSVKGRFTISRDNSKNTLYLQMSSLRAEDTAVYYCAKARANWDYFDYWGQGTLVTVSS VL: DIQMTQSPSSVSASVGDRVTITCRASQGISSWLAWYQHKPGKAPKLLIYAASILQSGVPSRFSGSGSGTDFTLTISSLQPEDFATYYCQQANSFPITFGQGTRLEIK",104,13,,,104,74,110,98,95,52.4,0.0127,12,,,30,102
